We go through 55 sequences from the supplement of paper PMC12636428.

For this series, the system named is Saccharomyces cerevisiae. Nature of the series: transcriptional activation domain activity (GFP:mCherry ratio, weighted mean of sorted bins, harmonized to initial dataset scale) (arbitrary fluorescence ratio units); higher = stronger transcriptional activation. Particulars: beta-estradiol 1 µM; induction time 4 h. The procedure, abridged: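 For this assay, yeast diploids with a GFP reporter carried barcoded protein tiles at URA3, each fused to an estradiol-inducible synthetic transcription factor. Induction was a 1:5 dilution into SC with 1 uM beta-estradiol for 4 hours at 30 °C, followed by sorting into 8 bins by GFP:mCherry ratio and barcode sequencing. Tiles under 50 reads were dropped, and activation activity was calculated as the read-weighted mean of bin median fluorescence, averaged across barcodes and linearly mapped onto the initial dataset scale.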
For “ILPRWIQVAITFVALLAVSCIVMVVGLIVKYWTLSVSFGHFLSRFAVLRYIVL”, the “transcriptional activation domain activity” value came out at 58500.

Turning to “RKADPPKEKKKPAVPAAEGAAAPAKKEKKDKKDKEAAAVSVEATEVKEEAAPA”, the “transcriptional activation domain activity” value amounted to 13900. Then “PYSLDIKNTVLDSADLNDIQNQETSLNLGLPPLSFDSPLPVTETIPSTTDNSL”, with 73400; and “AAAGAREVKHPAAKKQKKIEGGSETKDEEEKSSSKKRQKSESKSKSKSKSKSK”, with 28300. Then “MSSWVYKYQLMFVFVSKVESGGRIWNVIINRLLICVLLMQMLMILTMGLQYRF”, with 49000. For “DEDATNENMSGPAMDVDEARNFINARLDLLKRTLHPNPIVVTAQLLKAVWAAY”, the “transcriptional activation domain activity” value was found to be 36200.

Consider “LLLLIWMVTRLVRTYTTIMFRCLGPPDHVAKMHRLLLGLSTCLQLSVYVLITS”, for which the “transcriptional activation domain activity” value is 47300. Then “IIPKIYFYGGYKGLLLFISSLSLTLLCYILITRPILSFLIVSDIVLNVIINIY”, with 63400; and “MMKKKNWSYVVFWRGLPFFFFFFFFFFGEHFVLIFTSFVLFLLSLLCAGCVWV”, with 25000; and “IQDLVFSIIGWFCFGGYTGYNIIQYVNMFGFAEWRRTLPVLYQLMYFNVWMSL”, with 62900.

On to “RGDEDADGDDDEGEGSGDKTGDAEAGAAPSSGAGGGSSNSKKNKKKKNKKKGK”, for which the “transcriptional activation domain activity” value came to 51900. For “ASGAGAVKKAPKSPKAVATAKVGAKAAKPKAGAKATKPKAAKPKAAKAAAAGA” the value was 20900; for “LFGCVVSNVNGSSYLGLVYVIFMLYEGGLLLAMIKWRISTWIIYYICAFCLSL”, 59600; for “KSPVKRKPKAEGASADGSPKKRKSKGEAADADGTPKKRGRKPKKAEPQPEIQG”, 33700. Then “LHAGAAADDARTGGGGGGGTGQGRAEGRDRGAEPGAVRGGEPHGRGRAEAGAH”, with 8730; and “QDAGGSGDKKGGVYVHCAMGKSRSVTCVVAYLLYRYPHRYGGTAGSSSTAQRR”, with 45800; and “RHLSIRLCEIGLIIFAHGLHVHNAYSHLYICLHVVTSRYLYGSHCMVCQLLFY”, with 75800. Consider “LAEGAATEEAKTEEGSAPAGETAALAEAAATEEAAATEEVKEEKKEEAATTKA”, for which the “transcriptional activation domain activity” value turned out to be 29900. Take “CCQSNSLLNMENYLVPYDNFREVVDSRLQEESHSNGVDNSNSNSDNKDSIRPK”: the “transcriptional activation domain activity” value came to 24200.

As for “QLMTGPVLLDREVQTGHSGSLLVLVMSCWSLECFERRQALRKTVLALLGPLRE”, the “transcriptional activation domain activity” value was 70700. For “SGEATATPEKSKTPRKRKTKAEGDSADNGDADGSPKKKAGGRKKKADVVKEEM” the value was 23600; for “MLCIPFCVLFCVVMGLINYGAFVDPCFLSFYVLLSTLLQLPSSFLPFFLFLPP”, 66900.

Turning to “KGDLESFRRITDLNLTHEHARWFCRYHMFYQLGNYCEIYLWRSIFRKVFLLTG”, the “transcriptional activation domain activity” value is 54700. For “EVDEAAVKMVKRARRERRAAEKEASGEAEHAAGVEKKPKRRSSRKKKEEGEGG” the value was 31400. For “TIVLSAMQVGLATQFLVDDYAFSMASYVFSVFAILAPLSAIAAILFVLVLLFA” the value was 49900. For “FFLFLFFPFSFSFLFFSFFHFLPMLAHCYNGVTISVSLWFPLILASLFRPFLL” the value was 64300; for “GKPVALRTSTRVKDVSGDGIVTLESGEQISADVVVGADGVHSRTRYAIPGSAG”, 52400. Regarding “EYVSLCRTFATREMLKVAIFANIFSKMTRTLACLFVTRISSHVNRLRALLQPI”, the “transcriptional activation domain activity” value was determined as 61700. Then “GTGGLSELRDAFDDSKASYGYARVTYSNDKESQREKFILVVWIGSGCKVMRKG”, with 36600; and “MVPPRRESAATGASQRAAIACQSCRLRKVKCDAESAASDQGCTPCRRARQECV”, with 26600; and “SKARSRGQSSRTRKRGRQESSGESSSSEEEDSYRGRQGRSKAGKKGKDKGKGK”, with 27200. Turning to “PFPLLPFPLLPFPLLPSPLPIPLLPIPLLSFPLLPFPFLPFPLLSYPLFHFTV”, the “transcriptional activation domain activity” value worked out at 44800.

“EWVIGWCKQIGLPDGVTEFIGRSYIMTAEAYLDLPMSKQVLVPVVAINTLVFV”: the “transcriptional activation domain activity” value worked out at 34200. For “RVHMLLCICLIATFVGVTVDLALEILFRLSQFSESPRFSPTGSRTLILTLPLF” the value was 45300; for “RPEEAPSTDEEESRGECWSEGKLCLENYMRLNDLEPENSDPEQLAHVKELLEK”, 47500; for “SSSEDESDEEDEEGLGSDVEIHDQAEPAEDVPAGEVSRRFAVVNLDWDHVRAV”, 32200.

For “NCLLHIMRFLPFLELKQFIIAYRRFDIYACAESAIHLQYLDFFNFWMDPSFLL”, the “transcriptional activation domain activity” value was determined as 49700. Then “QYRYLTYSRWLVLLLYVFSWAFTVISMVLVTTNNANFVSCLLSILVCDVFYSG”, with 39300; and “MNLTLFYYTFLLSFFLIYCVVLNLYLRFFPANFVNMPLFISLTFLKCAWIPLL”, with 56200.

Turning to “ARKAFLLIEHMLELEGPPLIWNLLEILHNIMHLKQGRLFNMLIIHLMSLARSH”, the “transcriptional activation domain activity” value was 67400. Then “MCIFFKGQYPIYLAFVRPFASLFFRVPLFRLFFGIFCAWVLCFLFLLLLSFSC”, with 43600; and “MVFFTSSFLLGFFSFVSFRNHCSFFLMAPFLTGSELFLFFVLLFILFFFFGFG”, with 48800; and “SCMVYSIHNTTILILSFSPSPLNFFFFSSWLLFIFFFFLFLFLFLFLFLFLFL”, with 39900. For “INVTSPPPIDYLSIGDFSFFSFETTDLPFSIDSGVLLPSLSSFEQPIFDFNFI” the value was 143000; for “YISHSRCLLVFPVLPFFVHYLLFVFSFALLQIIALEILSLVLFVLDLLSLFPH”, 32800.

“VLLCQMEDAVLSSSFAIKANTAMSQNTAEEFFNISEEEALNQLLENNNFDAFW”: the “transcriptional activation domain activity” value was found to be 140000.

Take “GTAIEGLVIRFYIRKYEDSNNNNLEQNKTGQVRVSSPRAYLRIVGYTWVLAWF”: the “transcriptional activation domain activity” value turned out to be 38700. In the case of “LFSDTSFTIVFSNNVSFTYISFDKKVFFCIFFFLLVYFCQTFSFFLLFFLFFL”, the “transcriptional activation domain activity” value came to 44400. For “PANSSFVYVPMGWTLEVRNDGNPAIYAALLVRALLSRRVCRVGLLKHNTILVH” the value was 51300; for “ESCDGSLWLCPFSQPVRPSLIKLVSRGIDRRRITSLLFMLWLVCWAVSLLFSK”, 59900; for “VNDAARILLAGLLEIKYTIREHLKSMFGSPWIIMYWRNWSGPLNITLELLGKC”, 45200.

Consider “MGGVFWKWKRGVWMVRFFRVFLQIFLADIGLILLVFWHYIVCLCYFLFFLVGI”, for which the “transcriptional activation domain activity” value stood at 52500. Then “FLVCLLTMEFILHYMYVVAIQGAKAWHGDTPLELSMIGFWNLIVVWLKLLLPW”, with 18200; and “RHICLILINIAVGLRFIFYAIDPYCIYNIFNPILNRLLFVTFYWIALLAYVLM”, with 48100; and “MSIFFSVIPPFFSFLPLMLFFFFFLGCLGNGSTFFVSTLLWMGGSIGLLSFYS”, with 55600.
